From the supplement of paper PMC9112550, “Optimization of the antimicrobial peptide Bac7 by deep mutational scanning” (BMC Biology, 2022)

Test system: Escherichia coli TOP10
Test: shrunken log2 fold change of peptide-encoding DNA abundance (4.5 h post-induction vs induction); higher = less antimicrobial activity (less host growth inhibition)
Conditions: time post-induction: 4.5 h; library: site-saturation at positions 5, 18, 19, 20
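Note: peptides expressed intracellularly from a pBAD plasmid library in pooled LB shake-flask culture, induced with 0.3% L-arabinose, DNA abundance read by NGS, three biological replicates, DESeq2 with apeglm shrinkage.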

Sequence | shrunken log2 fold change
RRIRYRPPRLPRPRPRPRMEPRP | -0.0654
RRIRCRPPRLPRPRPRPWEPPRP | -0.00185
RRIRYRPPRLPRPRPRPHGSPRP | -0.00822
RRIRGRPPRLPRPRPRPTVRPRP | 0.452
RRIRARPPRLPRPRPRPYCDPRP | -0.425
RRIRKRPPRLPRPRPRPFTPPRP | 0.0993
RRIRARPPRLPRPRPRPRFEPRP | 0.401
RRIRLRPPRLPRPRPRPAKGPRP | -0.00764
RRIRRRPPRLPRPRPRPCICPRP | -0.0935
RRIRWRPPRLPRPRPRPEMCPRP | -0.0695
RRIRARPPRLPRPRPRPPLIPRP | 0.299
RRIRDRPPRLPRPRPRPFERPRP | -0.0141
RRIRVRPPRLPRPRPRPLMVPRP | -0.443
RRIRSRPPRLPRPRPRPKLPPRP | -0.0678
RRIRYRPPRLPRPRPRPVSDPRP | -0.379
RRIRSRPPRLPRPRPRPRPQPRP | 0.72
RRIRTRPPRLPRPRPRPAVHPRP | -0.0614
RRIRCRPPRLPRPRPRPFGPPRP | -0.283
RRIRHRPPRLPRPRPRPFHHPRP | 0.0477
RRIRNRPPRLPRPRPRPESTPRP | -0.0329
RRIRLRPPRLPRPRPRPEDMPRP | 0.0524
RRIRDRPPRLPRPRPRPVMLPRP | -0.0376
RRIRSRPPRLPRPRPRPCHKPRP | -1.16
RRIRVRPPRLPRPRPRPMYRPRP | 0.0262
RRIRQRPPRLPRPRPRPRGEPRP | 0.348

Sequence | shrunken log2 fold change
RRIRQRPPRLPRPRPRPIKWPRP | 0.00957
RRIRRRPPRLPRPRPRPMDKPRP | -0.283
RRIRTRPPRLPRPRPRPDVGPRP | -0.0549
RRIRARPPRLPRPRPRPEWYPRP | 0.137
RRIRKRPPRLPRPRPRPEMQPRP | 1.92
RRIRTRPPRLPRPRPRPIQAPRP | 0.232
RRIRDRPPRLPRPRPRPTGNPRP | 0.195
RRIRKRPPRLPRPRPRPHLEPRP | -0.0191
RRIRNRPPRLPRPRPRPTDYPRP | -0.409
RRIRHRPPRLPRPRPRPSWRPRP | -0.0493
RRIRMRPPRLPRPRPRPRYRPRP | 0.307
RRIRVRPPRLPRPRPRPETGPRP | 0.206
RRIRGRPPRLPRPRPRPEHVPRP | 0.0775
RRIRDRPPRLPRPRPRPVTNPRP | 0.102
RRIRIRPPRLPRPRPRPTQDPRP | -0.236
RRIRARPPRLPRPRPRPMLNPRP | -0.167
RRIRGRPPRLPRPRPRPLWTPRP | 0.472
RRIRPRPPRLPRPRPRPWGFPRP | -0.129
RRIRVRPPRLPRPRPRPLGDPRP | -0.125
RRIRFRPPRLPRPRPRPRMCPRP | 0.0779
RRIRWRPPRLPRPRPRPESTPRP | 1.17
RRIRRRPPRLPRPRPRPMHLPRP | 0.156
RRIRGRPPRLPRPRPRPMRMPRP | 1.4
RRIRGRPPRLPRPRPRPQQAPRP | -0.0245
RRIRDRPPRLPRPRPRPDDKPRP | 0.0802

Sequence | shrunken log2 fold change
RRIRFRPPRLPRPRPRPTTVPRP | -0.132
RRIRHRPPRLPRPRPRPAYIPRP | -0.00844
RRIRGRPPRLPRPRPRPPEVPRP | 1.02
RRIRQRPPRLPRPRPRPDQFPRP | 0.133
RRIRSRPPRLPRPRPRPIIQPRP | -0.429
RRIRCRPPRLPRPRPRPMVTPRP | -0.071
RRIRMRPPRLPRPRPRPPVLPRP | -0.122
RRIRVRPPRLPRPRPRPGTWPRP | -0.0352
RRIRERPPRLPRPRPRPRDIPRP | -0.0401
RRIRKRPPRLPRPRPRPNMGPRP | -0.215
RRIRQRPPRLPRPRPRPVWCPRP | 0.0608
RRIRCRPPRLPRPRPRPKEMPRP | 0.0303
RRIRWRPPRLPRPRPRPWDTPRP | 0.0106
RRIRQRPPRLPRPRPRPSMAPRP | -0.135
RRIRNRPPRLPRPRPRPATRPRP | 0.322
RRIRYRPPRLPRPRPRPISTPRP | -0.0632
RRIRWRPPRLPRPRPRPSTFPRP | -0.616
RRIRRRPPRLPRPRPRPGREPRP | -0.0226
RRIRWRPPRLPRPRPRPGDCPRP | 0.00839
RRIRLRPPRLPRPRPRPFLHPRP | -0.306
RRIRYRPPRLPRPRPRPELRPRP | 0.363
RRIRYRPPRLPRPRPRPYREPRP | 0.0196
RRIRERPPRLPRPRPRPQTVPRP | 0.136
RRIRPRPPRLPRPRPRPVEEPRP | 0.54
RRIRMRPPRLPRPRPRPFHFPRP | -0.313

Sequence | shrunken log2 fold change
RRIRVRPPRLPRPRPRPLELPRP | -0.103
RRIRYRPPRLPRPRPRPFARPRP | -0.084
RRIRCRPPRLPRPRPRPLQAPRP | 0.646
RRIRNRPPRLPRPRPRPRVGPRP | 0.0576
RRIRPRPPRLPRPRPRPRGMPRP | 0.137
RRIRRRPPRLPRPRPRPSPSPRP | 0.386
RRIRQRPPRLPRPRPRPMWDPRP | -0.0352
RRIRKRPPRLPRPRPRPPPNPRP | 0.982
RRIRMRPPRLPRPRPRPYDFPRP | -0.00149
RRIRIRPPRLPRPRPRPLMHPRP | -0.384
RRIRDRPPRLPRPRPRPYISPRP | -0.176
RRIRYRPPRLPRPRPRPQQCPRP | -0.145
RRIRLRPPRLPRPRPRPKVDPRP | -0.00247
RRIRQRPPRLPRPRPRPMLPPRP | -0.384
RRIRYRPPRLPRPRPRPVCIPRP | -1.24
RRIRMRPPRLPRPRPRPPTLPRP | 0.256
RRIRQRPPRLPRPRPRPLYVPRP | -0.307
RRIRTRPPRLPRPRPRPSMCPRP | -0.377
RRIRMRPPRLPRPRPRPPGVPRP | 0.919
RRIRLRPPRLPRPRPRPAVRPRP | 0.0913
RRIRARPPRLPRPRPRPWFEPRP | -0.0275
RRIRGRPPRLPRPRPRPCNQPRP | -0.174
RRIRTRPPRLPRPRPRPSFAPRP | -0.126
RRIRCRPPRLPRPRPRPDFPPRP | 0.137
RRIRHRPPRLPRPRPRPEGYPRP | -0.124

Sequence | shrunken log2 fold change
RRIRLRPPRLPRPRPRPCPEPRP | -0.0401
RRIRWRPPRLPRPRPRPRQRPRP | 0.957
RRIRERPPRLPRPRPRPLSEPRP | 0.0884
RRIRWRPPRLPRPRPRPFDFPRP | -0.159
RRIRTRPPRLPRPRPRPDPIPRP | 0.03
RRIRNRPPRLPRPRPRPDGIPRP | 0.0081
RRIRARPPRLPRPRPRPLVEPRP | 0.666
RRIRQRPPRLPRPRPRPNWIPRP | -0.0614
RRIRVRPPRLPRPRPRPTYVPRP | 0.00864
RRIRRRPPRLPRPRPRPVLNPRP | 0.0825
RRIRVRPPRLPRPRPRPMADPRP | -0.0473
RRIRKRPPRLPRPRPRPDGEPRP | 1.16
RRIRRRPPRLPRPRPRPAMIPRP | 0.0243
RRIRWRPPRLPRPRPRPKDEPRP | 0.0784
RRIRRRPPRLPRPRPRPNLSPRP | -0.0897
RRIRWRPPRLPRPRPRPAKTPRP | 0.0165
RRIRQRPPRLPRPRPRPLACPRP | -0.231
RRIRDRPPRLPRPRPRPAIEPRP | 0.0117
RRIRSRPPRLPRPRPRPVPWPRP | 0.212
RRIRYRPPRLPRPRPRPMGWPRP | -0.134
RRIRDRPPRLPRPRPRPAWGPRP | 0.769
RRIRFRPPRLPRPRPRPQQWPRP | -0.208
RRIRRRPPRLPRPRPRPGRHPRP | 0.212
RRIRRRPPRLPRPRPRPNNHPRP | -0.374
RRIRCRPPRLPRPRPRPDECPRP | -0.00243

Sequence | shrunken log2 fold change
RRIRMRPPRLPRPRPRPNIWPRP | 0.785
RRIRHRPPRLPRPRPRPPFEPRP | 0.161
RRIRLRPPRLPRPRPRPYMFPRP | -0.123
RRIRARPPRLPRPRPRPAEKPRP | -0.0197
RRIRGRPPRLPRPRPRPHPCPRP | 0.922
RRIRWRPPRLPRPRPRPMWSPRP | 0.266
RRIRTRPPRLPRPRPRPNFNPRP | -0.356
RRIRFRPPRLPRPRPRPGCPPRP | 0.00835
RRIRIRPPRLPRPRPRPNRRPRP | 0.041
RRIRQRPPRLPRPRPRPLWRPRP | 3.25
RRIRYRPPRLPRPRPRPQKQPRP | 0.00415
RRIRIRPPRLPRPRPRPIAVPRP | -0.0939
RRIRPRPPRLPRPRPRPHTEPRP | 0.0462
RRIRPRPPRLPRPRPRPIEIPRP | -0.0794
RRIRSRPPRLPRPRPRPTICPRP | -0.126
RRIRMRPPRLPRPRPRPFWGPRP | -0.149
RRIRQRPPRLPRPRPRPFKSPRP | -0.00197
RRIRLRPPRLPRPRPRPQCIPRP | -0.0123
RRIRFRPPRLPRPRPRPNNQPRP | -0.559
RRIRIRPPRLPRPRPRPIMIPRP | -0.0324
RRIRCRPPRLPRPRPRPVHPPRP | -0.375
RRIRLRPPRLPRPRPRPLRGPRP | 1.11
RRIRKRPPRLPRPRPRPQITPRP | -0.0657
RRIRGRPPRLPRPRPRPLDSPRP | 0.217
RRIRSRPPRLPRPRPRPDEVPRP | 0.0037
